Experiment [1] deals with T1, soluble Homo sapiens CD131 comprising a C-terminal 6xHis tag (human, UniProt P32927 17-438).
T1 construct: truncated after Ser438, C-terminal 6xHis; also called shCD131; shβc
T1 sequence: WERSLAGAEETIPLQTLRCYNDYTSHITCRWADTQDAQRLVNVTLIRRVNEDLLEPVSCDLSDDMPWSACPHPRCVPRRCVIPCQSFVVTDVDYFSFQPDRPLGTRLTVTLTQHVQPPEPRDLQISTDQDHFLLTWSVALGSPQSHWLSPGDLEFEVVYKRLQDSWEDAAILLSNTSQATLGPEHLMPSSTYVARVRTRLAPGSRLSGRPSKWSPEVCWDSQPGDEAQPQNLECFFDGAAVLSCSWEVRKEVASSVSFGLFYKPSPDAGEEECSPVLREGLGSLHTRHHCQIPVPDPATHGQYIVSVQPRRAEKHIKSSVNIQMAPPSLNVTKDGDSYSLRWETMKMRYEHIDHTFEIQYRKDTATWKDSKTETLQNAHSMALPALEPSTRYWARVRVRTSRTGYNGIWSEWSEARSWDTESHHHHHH
Briefly: SPR, Fab over captured shCD131. The protocol:
Binding kinetics were measured using SPR with a BIAcore™ A-100 instrument (GE Healthcare Life Sciences). An anti-C-terminal Hexa-His antibody (3H3) was immobilized on spots 1, 2, 4 and 5 of each flow cell of a CM-5 sensor chip (GE Healthcare Life Sciences) using amine-coupling chemistry (116). […] As shβc is a dimer, kinetics assays were performed with shβc captured on the sensor surface, and purified Fab injected as the analyte. Avidity effects were avoided by the use of Fab rather than whole IgG.
shCD131 was captured on spots 1 and 5 of each flow cell for 2 minutes at a concentration of 0.4 μg/ml. […] For some analysis purified Fab was injected over each flow cell for 3 minutes and dissociation was monitored for a further 10 minutes. Regeneration of the surface was performed after each cycle with a 40 second injection of 25 mM glycine, pH 2.0. The analysis was performed with Fabs at several concentrations between 100 and 0.31 nM, with each concentration analyzed twice and in random order. The analysis was performed at a flow rate of 30 μl/min in HBS-EP buffer (10 mM Hepes, 150 mM NaCl, 3 mM EDTA, 0.005% Tween 20, pH 7.4) at 37° C. Responses from spots 2 and 4 of each flow cell, (in which shβc was not captured, but otherwise treated identically), were subtracted from those of spots 1 and 5 respectively to produce reference subtracted data. Reference subtracted responses from a blank injection comprising buffer alone were subtracted from the resultant sensorgrams to produce double referenced data suitable for kinetic analysis. Double-referenced sensorgrams were fitted using non-linear regression to a model describing 1:1 kinetics, including a term for mass transport limitation. The Rₘₐₓ value was fitted locally to account for slight deviations in the level of sCD131 captured, with association rate (kₐ), dissociation rate (kd) and equilibrium dissociation constant (KD) fitted globally.

Experiment [2] has as its target T2, shCD131 G423A (human, UniProt P32927 17-438).
T2 construct: C-terminal 6xHis
T2 sequence: T1 sequence with G407A
The experiment in a line: SPR, steady state, Fab over captured mutant. How it is done: For some analysis purified Fab was injected over each flow cell for 3 minutes and dissociation was monitored for a further 10 minutes. Regeneration of the surface was performed after each cycle with a 40 second injection of 25 mM glycine, pH 2.0. The analysis was performed with Fabs at several concentrations between 100 and 0.31 nM, with each concentration analyzed twice and in random order. The analysis was performed at a flow rate of 30 μl/min in HBS-EP buffer (10 mM Hepes, 150 mM NaCl, 3 mM EDTA, 0.005% Tween 20, pH 7.4) at 37° C. Responses from spots 2 and 4 of each flow cell, (in which shβc was not captured, but otherwise treated identically), were subtracted from those of spots 1 and 5 respectively to produce reference subtracted data. Reference subtracted responses from a blank injection comprising buffer alone were subtracted from the resultant sensorgrams to produce double referenced data suitable for kinetic analysis. Double-referenced sensorgrams were fitted using non-linear regression to a model describing 1:1 kinetics, including a term for mass transport limitation. The Rₘₐₓ value was fitted locally to account for slight deviations in the level of sCD131 captured, with association rate (kₐ), dissociation rate (kd) and equilibrium dissociation constant (KD) fitted globally.
Mapping of the shCD131 epitope was performed by measurement of the affinity of Fabs for various alanine point mutants of shCD131 essentially as described above, with the following exceptions. Each shCD131 mutant was captured for 120 seconds at concentrations between 1 and 5 μg/ml. For kinetic analysis, purified recombinant Fabs were injected for 2 minutes, and dissociation was monitored for a further 2 minutes. […] Fab concentrations ranged from 16 μM to 3.9 nM in two-fold dilutions. The assays were conducted at 25° C. All sensorgrams were reference subtracted as described above. For determination of steady-state affinity (KD only), the response at the end of the binding phase was used to fit the data to a single-site binding model. Kinetic parameters were determined as described above.

Where a chain is given by its changes, count along the chain named.

B1: 9A2 Fab (Fab, V domains shown)
VH: EVQLLESGGGLVQPGGSLRLSCAASGFTFSHYHMLWVRQAPGKGLEWVSSIRSSGGFTYYADSVKGRFTISRDNSKNTLYLQMNSLRAEDTAVYYCARFYDSFFDIWGQGTMVTVSS
VL: DIQMTQSPSSVSASVGDRVTITCRASQGISSWLAWYQQKPGKAPKLLIYAASSLQSGVPSRFSGSGSGTDFTLTISSLQPEDFATYYCQQANSFPITFGQGTRLEIKR
notes: also called recombinant Fab of 9A2
As usually defined, the Kd is the constant that tells how readily two partners part at equilibrium. Lower therefore signals a tighter complex. Usually koff stands for the first-order rate constant of dissociation. The kon is the rate constant with which the complex forms. On to B1, for which, in experiment [1], the dissociation constant (Kd) was 49 nM, the koff was determined as 0.096 s⁻¹ and the kon stood at 2e+06 M⁻¹ s⁻¹. This molecule gave a Kd in experiment [2] of 197 nM.

The record behind these values is patent US20190062438A1 (CSL, published 2019).
